Patent publication US20230134571A1 (INTERNATIONAL AIDS VACCINE INITIATIVE, published 2023)

B1: ePGDM9 (antibody, V domains shown)
VH: QAQLVQSGPEVRKPGTSVKVSCKNPGNTLTTYDLHWVRQVPGQGLQWMGWISHEGDKKVIVERFKAKVTIDWDRSTNTAYLQLSGLTSEDTAVYYCAKGSKHRLRDYALYDEDGALNWAVDVDYLANLEFWGQGTAVTVSS
VL: DIVLTQSPLSLSVTPGESASISCKSSQSLIHGDRNNYLAWYVQKPGRSPQLLIDLASERASGVPDRFSGSGSRKDFTLKISRVETEDVGTYYCMQGRESPWTFGQGTKVDIK
B2: ePGDM5 (antibody, V domains shown)
VH: QAQLVQSGPEVRKPGTSVKVSCKNPGNTLTTYDLHWVRQVPGQGLQWMGWISHEGDKKVIVERFKAKVTIDWDRSTNTAYLQLSGLTSEDTAVYYCAKGSKHRLRDYALYDEDGALNWAVDVDYLANLEFWGQGTAVTVSS
VL: DFVLTQSPLSLSVTPGESASISCKSDHSLQHGDRNNYLAWYVQKPGRSPQLLIDLASERASGVPDRFSGSGSRKDFTLKIDRVEAEDVGTYYCMQGRESPWTFGQGTKVDIK
B3: ePGDM13 (antibody, V domains shown)
VH: QAQLVQSGPEVRKPGTSVKVSCKNPGNTLTTYDLHWVRQVPGQGLQWMGWISHEGDKKVIVERFKAKVTIDWDRSTNTAYLQLSGLTSEDTAVYYCAKGSKHRLRDYALYDEDGALNWAVDVDYLANLEFWGQGTAVTVSS
VL: DIVLTQSPLSLSVTPGESASISCKSSHSLQHGDRNNYLAWYVQKPGRSPQLLLDLASERASGVPDRFSGSGSEKDFTLKISRVETEDVGTYYCMQGRESPWTFGQGTKVDIK
B4: PGDM1400 (antibody, V domains shown)
VH: QVHLTQSGPEVRKPGTSVKVSCKAPGNTLKTYDLHWVRSVPGQGLQWMGWISHEGDKKVIVERFKAKVTIDWDRSTNTAYLQLSGLTSGDTAVYYCAKGSKHRLRDYALYDDDGALNWAVDVDYLSNLEFWGQGTAVTVSS
VL: DFVLTQSPHSLSVTPGESASISCKSSHSLIHGDRNNYLAWYVQKPGRSPQLLIYLASSRASGVPDRFSGSGSDKDFTLKISRVETEDVGTYYCMQGRESPWTFGQGTKVDIK

Assays:
Experiment in all cases: cell-based or functional assay
[1] = molecular target: HIV Env, isolate 6244_13_B5_4576 (HIV)
HIV Env, isolate PVO.4 = HIV Env, isolate PVO.4 (HIV)
[2] = molecular target: HIV Env, isolate QH0692.42 (HIV)
[3] = molecular target: HIV Env, isolate WEAU_d15_410_5017 (HIV)
HIV Env, isolate CNE53 = HIV Env, isolate CNE53 (HIV)
[4] = molecular target: HIV Env, isolate 7030102001E5(Rev-) (HIV)
[5] = molecular target: HIV Env, isolate Ce0682_E4 (HIV)
[6] = molecular target: HIV Env, isolate Ce1176_A3 (HIV)
[7] = molecular target: HIV Env, isolate Ce703010054_2A2 (HIV)
HIV Env, isolate Du422.1 = HIV Env, isolate Du422.1 (HIV)
[8] = molecular target: HIV Env, isolate ZM249M.PL1 (HIV)
[9] = molecular target: HIV Env, isolate 6480.v4.c25 (HIV)
HIV Env, isolate 6535.3 = HIV Env, isolate 6535.3 (HIV)
[10] = molecular target: HIV Env, isolate A07412M1.vrc12 (HIV)

| Binder | IC80 (µg/ml) with constrains [1] | IC80 (µg/ml) with constrains (HIV Env, isolate PVO.4) | IC80 (µg/ml) with constrains [2] | IC80 (µg/ml) with constrains [3] | IC80 (µg/ml) with constrains (HIV Env, isolate CNE53) | IC80 (µg/ml) with constrains [4] | IC80 (µg/ml) with constrains [5] | IC80 (µg/ml) with constrains [6] | IC80 (µg/ml) with constrains [7] | IC80 (µg/ml) with constrains (HIV Env, isolate Du422.1) | IC80 (µg/ml) with constrains [8] | IC80 (µg/ml) with constrains [9] | IC80 (µg/ml) with constrains (HIV Env, isolate 6535.3) | IC80 (µg/ml) with constrains [10] |
| --- | --- | --- | --- | --- | --- | --- | --- | --- | --- | --- | --- | --- | --- | --- |
| B1 | 50.2 µg/mL | 7.7 µg/mL | > 100 µg/mL | 0.009 µg/mL | 0.029 µg/mL | > 100 µg/mL | 0.022 µg/mL | 0.089 µg/mL | 0.032 µg/mL | 53.2 µg/mL | 0.008 µg/mL | > 100 µg/mL | > 100 µg/mL | 0.103 µg/mL |
| B2 | 75.6 µg/mL | 5.57 µg/mL | > 100 µg/mL | 0.003 µg/mL | 0.081 µg/mL | > 100 µg/mL | 0.021 µg/mL | 0.088 µg/mL | 0.034 µg/mL | 34.6 µg/mL | 0.138 µg/mL | > 100 µg/mL | > 100 µg/mL | 0.035 µg/mL |
| B3 | > 100 µg/mL | 11.8 µg/mL | > 100 µg/mL | 0.012 µg/mL | 0.059 µg/mL | > 100 µg/mL | 0.043 µg/mL | 0.124 µg/mL | 0.031 µg/mL | > 100 µg/mL | 0.056 µg/mL | > 100 µg/mL | > 100 µg/mL | 0.118 µg/mL |
| B4 | > 100 µg/mL | 13.6 µg/mL | > 100 µg/mL | 0.3 µg/mL | 0.105 µg/mL | > 100 µg/mL | 0.037 µg/mL | 2.1 µg/mL | 0.057 µg/mL | > 100 µg/mL | 0.101 µg/mL | > 100 µg/mL | > 100 µg/mL | 0.115 µg/mL |
